This note sets out measurements from article PMC7137648, “Molecular and Cellular Interactions of Scavenger Receptor SR-F1 With Complement C1q Provide Insights Into Its Role in the Clearance of Apoptotic Cells” (Frontiers in Immunology, 2020).

Residue numbers refer to the chain shown, from its start. Numbers in names are those of the source.

To fix the notation:
B1: SR-F1(20-221) (domain or fragment, human)
chain: SELDPKGQHVCVASSPSAELQCCAGWRQKDQECTIPICEGPDACQKDEVCVKPGLCRCKPGFFGAHCSSRCPGQYWGPDCRESCPCHPHGQCEPATGACQCQADRWGARCEFPCACGPHGRCDPATGVCHCEPGWWSSTCRRPCQCNTAAARCEQATGACVCKPGWWGRRCSFRCNCHGSPCEQDSGRCACRPGWWGPECQQLIK
notes: SR-F1 (SCARF1), human, EGF-like repeats 1-5, lacks EGF-like modules 6 to 10 and the three N-glycosylation sites; construct encodes the 221 first residues, named 20-221 as secreted protein; kept here by the cloning as described; The Leu-Ile-Lys and 8 His tail is printed for the parent plasmid only; also called SR-F1(1-221); SR-F(20-221); not shown: His8, C-terminal, kept
B2: SR-F1(20-353) (domain or fragment, human)
chain: SELDPKGQHVCVASSPSAELQCCAGWRQKDQECTIPICEGPDACQKDEVCVKPGLCRCKPGFFGAHCSSRCPGQYWGPDCRESCPCHPHGQCEPATGACQCQADRWGARCEFPCACGPHGRCDPATGVCHCEPGWWSSTCRRPCQCNTAAARCEQATGACVCKPGWWGRRCSFRCNCHGSPCEQDSGRCACRPGWWGPECQQQCECVRGRCSAASGECTCPPGFRGARCELPCPAGSHGVQCAHSCGRCKHNEPCSPDTGSCESCEPGWNGTQCQQPCLPGTFGESCEQQCPHCRHGEACEPDTGHCQRCDPGWLGPRCEDPCPTGTFGEDCGSLIK
modifications: N-linked glycan at Asn 289
notes: SR-F1 (SCARF1), human, EGF-like repeats 1-8; kept here by the cloning as described; The Leu-Ile-Lys and 8 His tail is printed for the parent plasmid only; not shown: His8, C-terminal, kept
B3: SR-F1(20-421), recombinant soluble SR-F1 ectodomain (domain or fragment, human)
chain: SELDPKGQHVCVASSPSAELQCCAGWRQKDQECTIPICEGPDACQKDEVCVKPGLCRCKPGFFGAHCSSRCPGQYWGPDCRESCPCHPHGQCEPATGACQCQADRWGARCEFPCACGPHGRCDPATGVCHCEPGWWSSTCRRPCQCNTAAARCEQATGACVCKPGWWGRRCSFRCNCHGSPCEQDSGRCACRPGWWGPECQQQCECVRGRCSAASGECTCPPGFRGARCELPCPAGSHGVQCAHSCGRCKHNEPCSPDTGSCESCEPGWNGTQCQQPCLPGTFGESCEQQCPHCRHGEACEPDTGHCQRCDPGWLGPRCEDPCPTGTFGEDCGSTCPTCVQGSCDTVTGDCVCSAGYWGPSCNASCPAGFHGNNCSVPCECPEGLCHPVSGSCQPGSGSRDTLIK
modifications: N-linked glycans at Asn 289, 382 and 393
notes: scavenger receptor class F member 1 (SR-F1, SREC-I, SCARF1), human, extracellular domain with EGF-like repeats 1-10; Mass 49.1 kDa by MALDI-TOF (polypeptide 44.0 kDa plus N-glycans); also called SR-F1 extracellular domain; not shown: His8, C-terminal, kept
B4: SR-F1(20-421) N393Q (domain or fragment, human)
chain: B3 chain with N374Q
modifications: N-linked glycans on the two remaining sites (Asn 289, Asn 382)
notes: SR-F1 (SCARF1), human, ectodomain as m1 with Asn 393 replaced by Gln; also called SR-F1 N393Q; N393Q mutant
B5: SR-F1(20-421) N382Q (domain or fragment, human)
chain: B3 chain with N363Q
modifications: N-linked glycans on the two remaining sites (Asn 289, Asn 393)
notes: SR-F1 (SCARF1), human, ectodomain as m1 with Asn 382 replaced by Gln; also called SR-F1 N382Q; N382Q mutant
B6: recombinant human calreticulin (CRT) (natural protein, UniProt P27797 18-417, looked up)
chain: EPAVYFKEQFLDGDGWTSRWIESKHKSDFGKFVLSSGKFYGDEEKDKGLQTSQDARFYALSASFEPFSNKGQTLVVQFTVKHEQNIDCGGGYVKLFPNSLDQTDMHGDSEYNIMFGPDICGPGTKKVHVIFNYKGKNVLINKDIRCKDDEFTHLYTLIVRPDNTYEVKIDNSQVESGSLEDDWDFLPPKKIKDPDASKPEDWDERAKIDDPTDSKPEDWDKPEHIPDPDAKKPEDWDEEMDGEWEPPVIQNPEYKGEWKPRQIDNPDYKGTWIHPEIDNPEYSPDPSIYAYDNFGVLGLDLWQVKSGTIFDNFLITNDEAYAEEFGNETWGVTKAAEKQMKDKQDEEQRLKEEEEDKKRKEEEEAEDKEDDEDKDEDEEDEEDKEEDEEEDVPGQAKDEL
notes: calreticulin, human, recombinant; MW = 49,431 g/mol used for quantification; In the endocytosis assay the protein was labelled with Alexa Fluor 568 succinimidyl ester; also called rCRT; AF568-rCRT

Holding throughout (conditions): both partners purified
Assay [1] addresses T1, complement protein C1q (human, UniProt P02745 23-245; P02746 28-253; P02747 29-245).
T1 construct: complement C1q A-chain, human; C1q is 18 polypeptide chains assembled into 6 triple helices of A-chain, B-chain and C-chain (460 kDa); complement C1q B-chain, human; complement C1q C-chain, human; also called whole C1q; serum C1q; source: purified from human serum; copies: 6 + 6 + 6
Nature of the assay: SPR; SR-F1(20-421), SR-F1(20-353) or SR-F1(20-221) injected at five increasing concentrations (multiple cycle kinetics) over covalently immobilized C1q (about 16,000 RU, CM5, amine coupling), BSA reference surface, TBS-Ca-P pH 7.4 (2 mM CaCl2), 20 μl/min, 25°C; global fit, 1:1 Langmuir model; apparent KD.

The target of assay [2] is B6. Nature of the assay: SPR; SR-F1(20-353) and SR-F1(20-221) fragments with CRT (Figure S7); which partner was immobilised is not told in the text shown.
Assay [3] concerns the target T1, complement protein C1q. The experiment in a line: SPR; N-glycosylation site mutants of SR-F1(20-421) with C1q (Figures S5A-C), n = 2; which partner was immobilised is not told in the text shown; apparent affinity.
Assay [4] deals with B3. The experiment in a line: SPR; CRT injected at five increasing concentrations (single cycle kinetics) over covalently immobilized SR-F1(20-421) (1,845 RU) in TBS-Ca-P at 30 μl/min, 25°C; global fit, two-state reaction model; apparent KD.
The target of assay [5] is B3. Nature of the assay: SPR; reverse configuration: soluble SR-F1(20-421) over immobilized CRT (3,320 RU); apparent KD; data not shown.

T1 sequence (P02745 23-245, chain 1 of 3): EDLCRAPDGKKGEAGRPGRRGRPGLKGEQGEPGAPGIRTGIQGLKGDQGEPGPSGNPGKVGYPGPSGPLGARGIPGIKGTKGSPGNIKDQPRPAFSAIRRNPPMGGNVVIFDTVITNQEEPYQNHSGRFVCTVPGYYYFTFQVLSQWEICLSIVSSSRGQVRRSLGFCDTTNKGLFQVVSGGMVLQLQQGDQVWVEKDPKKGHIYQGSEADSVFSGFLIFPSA
T1 sequence (P02746 28-253, chain 2 of 3): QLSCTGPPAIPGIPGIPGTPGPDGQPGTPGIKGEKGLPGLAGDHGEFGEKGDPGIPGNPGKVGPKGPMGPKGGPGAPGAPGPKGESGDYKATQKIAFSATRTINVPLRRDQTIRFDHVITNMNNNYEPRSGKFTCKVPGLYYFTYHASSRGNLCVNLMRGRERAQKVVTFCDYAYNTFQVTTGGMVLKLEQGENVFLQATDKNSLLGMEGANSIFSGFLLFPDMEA
T1 sequence (P02747 29-245, chain 3 of 3): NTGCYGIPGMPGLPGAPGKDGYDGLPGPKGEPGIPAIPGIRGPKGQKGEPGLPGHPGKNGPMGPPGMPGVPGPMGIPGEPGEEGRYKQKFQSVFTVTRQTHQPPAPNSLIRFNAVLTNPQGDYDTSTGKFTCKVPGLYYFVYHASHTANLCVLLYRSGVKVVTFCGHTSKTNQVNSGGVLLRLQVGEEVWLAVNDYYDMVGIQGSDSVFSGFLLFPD

Consider B1, for which, in the assay with complement protein C1q [1], the Kd turned out to be 17.7 nM; the koff amounted to 0.00303 s⁻¹; the association rate constant (kon) worked out at 185000 M⁻¹ s⁻¹; the “t1/2 (half-life of the complex, ln2/kd)” value turned out to be 3.82 min. Moreover, the binding result in assay [2] is listed as “binds”.
Regarding B2, in the assay with complement protein C1q [1], the Kd amounted to 32.4 nM; the dissociation rate constant (koff) turned out to be 0.00209 s⁻¹; the association rate constant (kon) is 70000 M⁻¹ s⁻¹; the “t1/2 (half-life of the complex, ln2/kd)” value is 5.52 min. Further, the binding result in assay [2] was “binds”.
As for B3, in the assay with complement protein C1q [1], the Kd was 186 nM; the koff was determined as 0.00126 s⁻¹; the on-rate (kon) came to 6840 M⁻¹ s⁻¹; the “t1/2 (half-life of the complex, ln2/kd)” value came to 9.17 min.
Take B4: the Kd with complement protein C1q [3] worked out at 589 ± 20 nM.
Same read-out and setting: next, B5: 604 nM.
Regarding B6, the figures for the Kd in assay [4] and in assay [5] were 345 ± 8 nM and 770 nM, respectively.
